This note sets out measurements from patent publication US20200354427A1 (Eli Lilly, published 2020).

Experiment [1] addresses PTH receptor (PTHR1 receptor) endogenously expressed by rat osteosarcoma UMR-106 cells (rat) (UniProt P25961). Briefly: cell-based or functional assay.
Experiment [2] has as its target T1, human RANKL (receptor activator of nuclear factor kappa-B ligand) (human, UniProt O14788 140-317, limits assumed).
T1 sequence (looked up): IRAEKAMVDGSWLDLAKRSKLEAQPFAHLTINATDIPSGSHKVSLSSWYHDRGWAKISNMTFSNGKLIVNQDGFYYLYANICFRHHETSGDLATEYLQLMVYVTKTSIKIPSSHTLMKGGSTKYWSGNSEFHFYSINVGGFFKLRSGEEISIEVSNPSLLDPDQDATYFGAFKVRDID
Briefly: cell-based or functional assay.

PTH receptor (PTHR1 receptor) endogenously expressed by rat osteosarcoma UMR-106 cells (rat), sequence (P25961 27-591): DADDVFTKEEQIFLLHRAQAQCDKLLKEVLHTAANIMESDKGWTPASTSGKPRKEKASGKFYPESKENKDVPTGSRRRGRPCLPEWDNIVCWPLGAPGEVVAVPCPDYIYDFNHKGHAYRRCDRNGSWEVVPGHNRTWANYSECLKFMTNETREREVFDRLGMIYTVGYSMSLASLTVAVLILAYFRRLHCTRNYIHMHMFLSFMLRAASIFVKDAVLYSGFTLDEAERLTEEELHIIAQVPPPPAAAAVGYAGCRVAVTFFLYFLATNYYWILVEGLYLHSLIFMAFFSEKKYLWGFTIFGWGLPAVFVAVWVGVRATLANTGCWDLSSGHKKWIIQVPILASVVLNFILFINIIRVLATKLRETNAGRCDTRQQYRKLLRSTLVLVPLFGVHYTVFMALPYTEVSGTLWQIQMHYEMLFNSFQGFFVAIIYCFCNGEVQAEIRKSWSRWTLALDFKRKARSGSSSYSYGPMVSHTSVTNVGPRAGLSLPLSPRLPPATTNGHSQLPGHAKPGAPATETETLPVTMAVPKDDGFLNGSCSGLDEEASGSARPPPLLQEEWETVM

Take “PTH peptide (a 38 amino acid parathyroid hormone peptide)”: in experiment [1], the EC50 (nM); PTHR1 activation, CRE-regulated luciferase luminescence in UMR-106 cells is 5.6 nM.

B1: RANKL neutralizing antibody (an IgG4 RANKL mAb having the same HC and LC amino acid sequences as the mAb portion of the exemplified fusion compound) (antibody, V domains shown)
VH: QVQLVQSGAEVKKPGSSVKVSCKASGYAFTNYYIEWVRQAPGQGLEWMGVINPGWGDTNYNEKFKGRVTITADKSTSTAYMELSSLRSEDTAVYYCARRDTAHGYYALDPWGQGTTVTVSS
VL: DIQMTQSPSSLSASVGDRVTITCKASQNVGTNVAWYQQKPGKAPKLLIYSASYRYSGVPSRFSGSGSGTDFTLTISSLQPEDFATYYCQQYWDYPLTFGGGTKVEIKR
Take B1: the “IC50 (nM) hRANKL; neutralization of RANKL-induced NF-kB driven luciferase luminescence” value in experiment [2] worked out at 0.069 nM.
